The values below come from patent US7902156B2 (Angiochem Inc., priority 2005, dated 2011).

Read-outs that look alike come from different tables or passages of the source. Residues, ends and D or L forms follow the SMILES beside them. No end group written: not given here.

Data set [1] has as its system in vitro model of the BBB (co-culture of bovine brain capillary endothelial cells and rat glial cells). Briefly: First level screening: peptide passage in the in vitro BBB model, Coomassie blue detection. Particulars: 90 minutes at 37° C.
Description: An in vitro model was used for screening assay and for mechanistic studies of drug transport to the brain. […] The model consists of a co-culture of bovine brain capillary endothelial cells and rat glial cells. It presents ultrastructural features characteristic of brain endothelium including tight junctions, lack of fenestration, lack of transendothelial channels, low permeability for hydrophilic molecules and a high electrical resistance.
The in vitro model of BBB was established by using a co-culture of BBCECs and astrocytes. Prior to cell culture, plate inserts (Millicell-PC 3.0 μM; 30-mm diameter) were coated on the upper side with rat tail collagen. They were then set in six-well microplates containing the astrocytes and BBCECs were plated on the upper side of the filters in 2 mL of co-culture medium. This BBCEC medium was changed three times a week. Under these conditions, differentiated BBCECs formed a confluent monolayer 7 days later. Experiments were performed between 5 and 7 days after confluence was reached. The permeability coefficient for sucrose was measured to verify the endothelial permeability.
Briefly, after removing the meninges, the brain tissue was forced gently through an 82 μm nylon sieve. Astrocytes were plated on six-well microplates at a concentration of 1.2×10^5 cells/mL in 2 mL of optimal culture medium (DMEM) supplemented with 10% heat inactivated fetal bovine serum. The medium was changed twice a week.
Bovine brain capillary endothelial cells (BBCECs) were obtained from Cellial Technologies. The cells were cultured in the presence of DMEM medium supplemented with 10% (v/v) horse serum and 10% heat-inactivated calf serum, 2 mM of glutamine, 50 μg/mL of gentamycin, and 1 ng/mL of basic fibroblast growth factor, added every other day.
Each peptide was added to the upper side of the inserts covered or non-covered with endothelial cells for 90 minutes at 37° C. […] After 90 minutes of transcytosis, a volume of 50 μl from the basolateral side of the filters covered with endothelial cells (+) or non-covered (−) was also loaded on Tricine gels. To visualize the peptides gels were stained with Coomassie blue.
Data set [2] deals with in vitro model of the BBB (bovine brain capillary endothelial cells). Briefly: Second level screening: [125I]-peptide passage in the in vitro BBB model (cpm ratios). Here is the method:
This BBCEC medium was changed three times a week.
The medium was changed twice a week.
Briefly, the selected peptides were iodinated with standard procedures using iodo-beads from Sigma. Two iodo-beads were used for each protein. […] The iodination for each peptide was initiated by adding 100 μg (80-100 μl) of the bead suspension. […] Fractions of 0.5 ml were collected and the radioactivity in 5 μl of each fraction was measured.
The iodinated peptides were also investigated with the in vitro model of the BBB. […] Results were expressed as cpm ratios.

The test system of another data set is brain tumor model. Particulars: injected alone at the maximal tolerated dose (54 mg/kg); cited from earlier work.
The subject of data set [3] is in vitro BBB model (BBCEC monolayers grown on filters in the presence of astrocytes). Nature of the data set: Permeability coefficient (Pe) / transcytosis capacity in the in vitro BBB model. The class given is in vitro ADME, bovine. The following applies: third level of selection, peptide at 250 nM. As for the experimental part:
At different times, inserts were placed into another well.
Transcytosis capacity of Aprotinin-Paclitaxel conjugate was determined and is reported below in Table 5.

The next data set deals with mouse brain. Briefly: In situ cerebral perfusion with post-perfusion capillary depletion. The format is in vivo, mice. Particulars: perfusion 5 min; for Volume of distribution, Capillaries %: share of homogenate; for Volume of distribution, Homogenate: total brain. An excerpt:
The in situ cerebral perfusion (in mice) was used as the fourth level of selection to select the best peptides. This procedure also distinguishes between compounds remaining in the brain vascular compartment from those having crossed the abluminal endothelial membrane to enter the brain parenchyma. Indeed, the technique of post-perfusion capillary depletion allows to measure whether the molecule really crosses the endothelium to enter the brain parenchyma.

Setting [4] is: [125I]-peptide, cpm in bottom chamber / total cpm added, filter covered with endothelial cells, 90 minutes at 37° C.

Consider `C[C@@H](O)[C@H](NC(=O)[C@H](CCCCN)NC(=O)[C@H](Cc1ccccc1)NC(=O)[C@H](CC(N)=O)NC(=O)[C@H](CC(N)=O)NC(=O)[C@H](CCCNC(=N)N)NC(=O)[C@H](CCCCN)NC(=O)CNC(=O)[C@H](CCCNC(=N)N)NC(=O)[C@H](CS)NC(=O)[C@H](CS)NC(=O)CNC(=O)[C@H](Cc1ccc(O)cc1)NC(=O)[C@H](Cc1ccccc1)NC(=O)[C@H](Cc1ccccc1)NC(=O)[C@@H](NC(=O)[C@@H](N)CS)[C@@H](C)O)C(=O)N[C@@H](CCC(=O)O)C(=O)N[C@@H](CCC(=O)O)C(=O)N[C@@H](Cc1ccc(O)cc1)C(=O)O` [Peptide 71, CTFFYGCCRGKRNNFKTEEY] (H-CTFFYGCCRGKRNNFKTEEY-OH; N-terminus and C-terminus assumed), for which, in data set [1], the “Peptide detected in the lower side of the chambers by Coomassie blue staining” value (“Peptide detected in the lower side” below) is recorded as “detected in the lower side of the chambers”. In data set [2], the “Ratio −cells/initial” value is recorded as 0.072. Also, the “Ratio +cells/−cells” value in data set [2] ([125I]-peptide in bottom chamber of filters covered with vs without endothelial cells) is given as 0.37. In addition, the “Ratio +cells/initial” value in data set [2] (setting [4]) is listed as 0.027.

As to `CC(=O)O[C@H]1C(=O)[C@@]2(C)[C@H]([C@H](OC(=O)c3ccccc3)[C@]3(O)C[C@H](OC(=O)[C@H](O)[C@@H](NC(=O)c4ccccc4)c4ccccc4)C(C)=C1C3(C)C)[C@]1(OC(C)=O)CO[C@@H]1C[C@@H]2O` [paclitaxel], the Mouse survival result with brain tumor model is on record as “unable to increase mouse survival”.

As to “R F K Y G G C L G N K N N Y L R L K Y (RFKYGGCLGNKNNYLRLKY-NH2) [Peptide 91]”, the “Peptide detected in the lower side” value in data set [1] was “detected in the lower side of the chambers”. The “Permeability coefficient (Pe)” value in data set [3] is recorded as “highest Pe”. In the data set on mouse brain, the “Volume of distribution, Capillaries” value worked out at 24 ml/100 g; the “Volume of distribution, Capillaries %” value was 59%; the “Volume of distribution, Homogenate” value amounted to 47 ml/100 g. Further, in data set [2], the “Ratio +cells/initial” value was 0.158 and the “Ratio −cells/initial” value is recorded as 0.406.

“T F F Y G G C R G K R N N F K T K E Y (TFFYGGCRGKRNNFKTKEY-NH2) [Peptide 76]”: the “Peptide detected in the lower side” value in data set [1] is reported as “detected in the lower side of the chambers”. Further, in data set [3], the “Permeability coefficient (Pe)” value is listed as “highest Pe”. In the data set on mouse brain, the “Volume of distribution, Capillaries” value is on record as 16 ml/100 g; the “Volume of distribution, Capillaries %” value is 40%; the “Volume of distribution, Homogenate” value was determined as 40 ml/100 g. In addition, in data set [2], the “Ratio +cells/initial” value is recorded as 0.084 and the “Ratio −cells/initial” value was determined as 0.222.

Regarding “TFFYGGCRAKRNNFKRAKY-NH2 [Peptide 5, T F F Y G G C R A K R N N F K R A K Y]”, the “Peptide detected in the lower side” value in data set [1] is on record as “detected in the lower side of the chambers”. The “Permeability coefficient (Pe)” value in data set [3] is “highest Pe”. In the data set on mouse brain, the “Volume of distribution, Capillaries” value came out at 217 ml/100 g; the “Volume of distribution, Capillaries %” value is recorded as 73%; the “Volume of distribution, Homogenate” value is listed as 312 ml/100 g. In addition, the “Ratio +cells/initial” value in data set [2] (setting [4]) is reported as 0.051.
